For this data set, the target named is Cy5-S15(T79C), 30S ribosomal protein S15 (Escherichia coli, UniProt P0ADZ4 1-89, T79C). Briefly: single-molecule FRET (ZMW); pre-folded; >80% of molecules bind stably; read-out is H20-H22 closure, S15 label in this assay not stated; 50 mM Tris pH 7.5, 14 mM MgCl2, 20 mM NaCl, 150 mM KCl, 0.04 mM EDTA, 40 ug/ml BSA, 0.01% Triton X-100, 2 mM spermidine, 1 mM putrescine; 20 C unless stated; 0.

B1: 85 nt minimal 3-way junction (p0099A/B/C) (structured_RNA)
RNA 1: GGCGCACGCAGGCGGUUUGCCG
RNA 2: CGGCAAGCUUGAGUCUCGUAGAGGGGGGU
RNA 3: GCCCCCUGGACGAAGACUGACGCUCAGGUGCGCC
In the case of B1, the binding result is recorded as “binds”.
